Assay results as given in PMC9482650, “Quantitative fragmentomics allow affinity mapping of interactomes” (Nature Communications, 2022).

T1: APBA2_1, Q99767
T1 sequence (Q99767 563-664, limits assumed, looked up): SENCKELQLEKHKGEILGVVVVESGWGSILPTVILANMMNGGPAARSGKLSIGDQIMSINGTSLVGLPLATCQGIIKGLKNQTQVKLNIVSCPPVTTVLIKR

T2: DFNB31_1, Q9P202
T2 sequence (Q9P202 135-233, limits assumed, looked up): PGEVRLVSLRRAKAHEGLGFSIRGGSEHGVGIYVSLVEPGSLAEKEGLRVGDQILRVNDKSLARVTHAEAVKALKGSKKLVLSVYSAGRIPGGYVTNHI

T3: DVL3, Q92997
T3 sequence (Q92997 244-331, limits assumed, looked up): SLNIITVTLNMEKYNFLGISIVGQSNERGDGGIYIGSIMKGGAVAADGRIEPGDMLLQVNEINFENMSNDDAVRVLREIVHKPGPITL

T4: GRIP1_2, Q9Y3R0
T4 sequence (Q9Y3R0 145-248, limits assumed, looked up): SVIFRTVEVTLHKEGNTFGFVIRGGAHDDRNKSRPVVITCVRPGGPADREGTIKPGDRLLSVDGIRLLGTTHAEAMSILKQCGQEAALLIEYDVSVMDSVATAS

T5: GRIP1_3, Q9Y3R0
T5 sequence (Q9Y3R0 247-346, limits assumed, looked up): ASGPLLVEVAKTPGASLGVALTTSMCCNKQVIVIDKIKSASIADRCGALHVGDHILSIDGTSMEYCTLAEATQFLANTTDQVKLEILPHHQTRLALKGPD

T6: LRRC7, Q96NW7
T6 sequence (Q96NW7 1440-1537, limits assumed, looked up): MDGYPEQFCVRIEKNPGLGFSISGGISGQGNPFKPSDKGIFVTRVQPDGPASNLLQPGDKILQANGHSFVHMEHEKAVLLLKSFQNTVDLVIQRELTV

T7: MPDZ_12, O75970
T7 sequence (O75970 1857-1958, limits assumed, looked up): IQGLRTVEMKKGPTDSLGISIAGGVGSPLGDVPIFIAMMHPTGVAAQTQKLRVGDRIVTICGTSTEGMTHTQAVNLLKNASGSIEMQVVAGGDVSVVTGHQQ

T8: PDZRN3_1, Q9UPQ7
T8 sequence (Q9UPQ7 244-349, limits assumed, looked up): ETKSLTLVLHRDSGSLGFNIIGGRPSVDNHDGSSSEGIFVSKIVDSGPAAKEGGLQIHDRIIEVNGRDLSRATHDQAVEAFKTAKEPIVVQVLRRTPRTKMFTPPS

T9: RADIL, Q96JH8
T9 sequence (Q96JH8 971-1071, limits assumed, looked up): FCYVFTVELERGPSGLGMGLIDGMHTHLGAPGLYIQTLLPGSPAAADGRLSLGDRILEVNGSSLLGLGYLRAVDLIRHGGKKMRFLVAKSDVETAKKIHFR

T10: RHPN1, Q8TCX5
T10 sequence (Q8TCX5 508-602, limits assumed, looked up): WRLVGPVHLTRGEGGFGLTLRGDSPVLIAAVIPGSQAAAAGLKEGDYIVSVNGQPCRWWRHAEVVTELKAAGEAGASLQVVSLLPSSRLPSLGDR

T11: SNTB1, Q13884
T11 sequence (Q13884 107-205, limits assumed, looked up): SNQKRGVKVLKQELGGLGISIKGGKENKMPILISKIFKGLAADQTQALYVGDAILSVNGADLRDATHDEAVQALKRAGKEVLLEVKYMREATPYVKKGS

T12: SNTG2, Q9NY99
T12 sequence (Q9NY99 68-166, limits assumed, looked up): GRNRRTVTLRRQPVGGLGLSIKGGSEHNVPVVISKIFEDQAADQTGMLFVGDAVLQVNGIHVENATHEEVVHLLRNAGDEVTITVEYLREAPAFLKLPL


Experiments:
Assay in all cases: holdup assay
Design in all cases: key: below the threshold = too weak to quantify, mostly under pKd 3.1 to 4
Conditions in all cases: plain residues with an end cap or a label only (N-terminal biotin on a linker: ado-ado)
AHNAK1, Q09666 = biological target: AHNAK1, Q09666
APBA2_1, Q99767 = biological target: T1, APBA2_1, Q99767
ARHGEF12, Q9NZN5-2 = biological target: ARHGEF12, Q9NZN5-2
DFNB31_1, Q9P202 = biological target: T2, DFNB31_1, Q9P202
DLG1_2, Q12959 = biological target: DLG1_2, Q12959
DLG2_3, Q15700 = biological target: DLG2_3, Q15700
DLG4_3, P78352 = biological target: DLG4_3, P78352
DVL3, Q92997 = biological target: T3, DVL3, Q92997
GRIP1_2, Q9Y3R0 = biological target: T4, GRIP1_2, Q9Y3R0
GRIP1_3, Q9Y3R0 = biological target: T5, GRIP1_3, Q9Y3R0
Inadl_10, Q8NI35 = biological target: Inadl_10, Q8NI35
Inadl_4, Q8NI35 = biological target: Inadl_4, Q8NI35
LRRC7, Q96NW7 = biological target: T6, LRRC7, Q96NW7
MAGI2_3, Q86UL8 = biological target: MAGI2_3, Q86UL8
MAGI2_5, Q86UL8 = biological target: MAGI2_5, Q86UL8
MPDZ_12, O75970 = biological target: T7, MPDZ_12, O75970
NHERF4_2, Q86UT5 = biological target: NHERF4_2, Q86UT5
PARD3_3, Q8TEW0 = biological target: PARD3_3, Q8TEW0
PDZRN3_1, Q9UPQ7 = biological target: T8, PDZRN3_1, Q9UPQ7
RADIL, Q96JH8 = biological target: T9, RADIL, Q96JH8
RHPN1, Q8TCX5 = biological target: T10, RHPN1, Q8TCX5
SCRIB_1, Q14160 = biological target: SCRIB_1, Q14160
SCRIB_3, Q14160 = biological target: SCRIB_3, Q14160
SNTB1, Q13884 = biological target: T11, SNTB1, Q13884
SNTG2, Q9NY99 = biological target: T12, SNTG2, Q9NY99

NHERF4_2, Q86UT5, sequence (Q86UT5 220-308): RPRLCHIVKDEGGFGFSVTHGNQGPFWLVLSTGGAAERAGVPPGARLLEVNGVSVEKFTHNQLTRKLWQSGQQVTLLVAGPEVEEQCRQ
AHNAK1, Q09666, sequence (Q09666 4-100): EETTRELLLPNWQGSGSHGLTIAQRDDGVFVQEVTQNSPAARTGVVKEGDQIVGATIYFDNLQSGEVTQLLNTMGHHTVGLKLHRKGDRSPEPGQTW
MAGI2_3, Q86UL8, sequence (Q86UL8 600-682): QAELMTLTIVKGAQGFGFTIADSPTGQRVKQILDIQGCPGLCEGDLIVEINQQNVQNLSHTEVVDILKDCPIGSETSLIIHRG
Inadl_4, Q8NI35, sequence (Q8NI35 547-651): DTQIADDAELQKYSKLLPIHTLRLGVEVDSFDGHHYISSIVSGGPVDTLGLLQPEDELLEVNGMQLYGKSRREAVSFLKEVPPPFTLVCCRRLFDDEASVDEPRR
SCRIB_1, Q14160, sequence (Q14160 718-814): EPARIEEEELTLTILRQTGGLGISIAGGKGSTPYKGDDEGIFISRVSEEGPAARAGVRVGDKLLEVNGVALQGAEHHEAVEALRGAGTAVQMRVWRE
DLG1_2, Q12959, sequence (Q12959 314-412): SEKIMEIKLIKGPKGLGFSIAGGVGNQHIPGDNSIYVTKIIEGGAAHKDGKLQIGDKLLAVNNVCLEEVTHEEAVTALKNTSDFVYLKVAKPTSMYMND
ARHGEF12, Q9NZN5-2, sequence (Q9NZN5 other isoform, or with tags, fused parts or gaps): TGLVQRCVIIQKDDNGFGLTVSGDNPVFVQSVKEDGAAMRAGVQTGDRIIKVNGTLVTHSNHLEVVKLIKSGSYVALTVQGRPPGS
SCRIB_3, Q14160, sequence (Q14160 999-1103): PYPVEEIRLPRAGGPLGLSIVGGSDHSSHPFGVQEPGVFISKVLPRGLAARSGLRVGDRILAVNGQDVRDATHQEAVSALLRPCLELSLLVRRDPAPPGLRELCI
Inadl_10, Q8NI35, sequence (Q8NI35 1673-1763): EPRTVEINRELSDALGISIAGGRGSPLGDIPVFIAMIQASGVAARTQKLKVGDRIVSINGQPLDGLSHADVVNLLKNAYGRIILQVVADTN
DLG4_3, P78352, sequence (P78352 306-403): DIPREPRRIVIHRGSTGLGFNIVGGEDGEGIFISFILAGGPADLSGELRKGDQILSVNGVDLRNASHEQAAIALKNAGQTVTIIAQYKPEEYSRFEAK
MAGI2_5, Q86UL8, sequence (Q86UL8 915-1017): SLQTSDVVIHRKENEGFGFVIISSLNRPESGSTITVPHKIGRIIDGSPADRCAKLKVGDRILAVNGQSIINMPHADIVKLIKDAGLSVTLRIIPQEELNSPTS
PARD3_3, Q8TEW0, sequence (Q8TEW0 582-685): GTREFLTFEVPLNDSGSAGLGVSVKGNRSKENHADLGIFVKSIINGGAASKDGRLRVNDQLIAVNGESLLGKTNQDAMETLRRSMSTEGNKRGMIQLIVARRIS

Row | pKd (AHNAK1, Q09666) | pKd (APBA2_1, Q99767) | pKd (ARHGEF12, Q9NZN5-2) | pKd (DFNB31_1, Q9P202) | pKd (DLG1_2, Q12959) | pKd (DLG2_3, Q15700) | pKd (DLG4_3, P78352) | pKd (DVL3, Q92997) | pKd (GRIP1_2, Q9Y3R0) | pKd (GRIP1_3, Q9Y3R0) | pKd (Inadl_10, Q8NI35) | pKd (Inadl_4, Q8NI35) | pKd (LRRC7, Q96NW7) | pKd (MAGI2_3, Q86UL8) | pKd (MAGI2_5, Q86UL8) | pKd (MPDZ_12, O75970) | pKd (NHERF4_2, Q86UT5) | pKd (PARD3_3, Q8TEW0) | pKd (PDZRN3_1, Q9UPQ7) | pKd (RADIL, Q96JH8) | Binder | further results
1 | below the threshold | below the threshold | below the threshold | below the threshold | below the threshold | 4.11 | 3.7 | below the threshold | below the threshold | below the threshold | below the threshold | below the threshold | below the threshold | 3.64 | below the threshold | 3.58 | below the threshold | below the threshold | below the threshold | below the threshold | RGKNRRQSIF [CDK18, Q07002] | pKd (RHPN1, Q8TCX5): 3.58; pKd (SCRIB_1, Q14160): below the threshold; pKd (SCRIB_3, Q14160): 3.65; pKd (SNTB1, Q13884): below the threshold; pKd (SNTG2, Q9NY99): below the threshold
2 | below the threshold | 3.55 | below the threshold | below the threshold | 3.95 | 3.84 | below the threshold | 4.34 | below the threshold | below the threshold | below the threshold | below the threshold | below the threshold | below the threshold | below the threshold | 3.5 | below the threshold | 4.9 | below the threshold | 4.43 | GDSSRKEYFI [GYPC, P04921] | pKd (RHPN1, Q8TCX5): below the threshold; pKd (SCRIB_1, Q14160): below the threshold; pKd (SCRIB_3, Q14160): 4.13; pKd (SNTB1, Q13884): below the threshold; pKd (SNTG2, Q9NY99): below the threshold
3 | below the threshold | below the threshold | below the threshold | below the threshold | below the threshold | 3.57 | below the threshold | below the threshold | below the threshold | below the threshold | below the threshold | below the threshold | below the threshold | 3.56 | below the threshold | 3.75 | below the threshold | below the threshold | below the threshold | below the threshold | QLGSPTADLA [SIPA1, Q96FS4] | pKd (RHPN1, Q8TCX5): below the threshold; pKd (SCRIB_1, Q14160): below the threshold; pKd (SCRIB_3, Q14160): below the threshold; pKd (SNTB1, Q13884): below the threshold; pKd (SNTG2, Q9NY99): below the threshold
